Results: patent publication US12139534B2, “Methods and compositions for decreasing soluble immune receptor CD28” (BIOND BIOLOGICS LTD., priority 2018, dated 2024)

B1: antibody #1: sCD28 binding (sweeping) antibody; heavy chain SEQ ID NO: 42, light chain SEQ ID NO: 44 (antibody)
heavy: QIQLVQSGPELKKPGETVKISCKASGYTLTNYGMNWVKQAPGKGLKWMGWINTYTGKPTYVDDFKGRFAFSLETSASTAYLQINNLKNEDTATYFCARGDANQQFAYWGQGTLVTVSAAKTTPPSVYPLAPGSAAQTNSMVTLGCLVKGYFPEPVTVTWNSGSLSSGVHTFPAVLQSDLYTLSSSVTVPSSTWPSETVTCNVAHPASSTKVDKKIVPRDCGCKPCICTVPEVSSVFIFPPKPKDVLTITLTPKVTCVVVDISKDDPEVQFSWFVDDVEVHTAQTQPREEQFNSTFRSVSELPIMHQDWLNGKEFKCRVNSAAFPAPIEKTISKTKGRPKAPQVYTIPPPKEQMAKDKVSLTCMITDFFPEDITVEWQWNGQPAENYKNTQPIMDTDGSYFVYSKLNVQKSNWEAGNTFTCSVLHEGLHNHHTEKSLSHSPGK
light: DIKMTQSPSSMYASLGERVTITCKASQDINSYLSWFQQKPGKSPKTLIYRANRLVDGVPSRFSGSGSGQDYSLTISSLEYDDMGIYYCLQYDEFPPTFGAGTKLELKRADAAPTVSIFPPSSEQLTSGGASVVCFLNNFYPKDINVKWKIDGSERQNGVLNSWTDQDSKDSTYSMSSTLTLTKDEYERHNSYTCEATHKTSTSPIVKSFNRNEC
B2: CD80-Fc: extracellular domain of CD80 fused to an Fc moiety (protein)
chain: VIHVTKEVKEVATLSCGHNVSVEELAQTRIYWQKEKKMVLTMMSGDMNIWPEYKNRTIFDITNNLSIVILALRPSDEGTYECVVLKYEKDAFKREHLAEVTLSVKADFPTPSISDFEIPTSNIRRIICSTSGGFPEPHLSWLENGEELNAINTTVSQDPETELYAVSSKLDFNMTTNHSFMCLIKYGHLRVNQTFNWNTTKQEHFPDN
modifications: left off: a dimerising Fc or GST
notes: extracellular domain of CD80 fused to an Fc moiety
B3: antibody #3: sCD28 binding (sweeping) antibody; heavy chain SEQ ID NO: 50, light chain SEQ ID NO: 52 (antibody)
heavy: EVQLQQFGAELVKPGASVKISCKASGYTFTDYNMDWVKQSHGKSLEWIGDINPNYDSTAYNQKFMGKATLTVDKSSNTAYMELRSLTSEDTAVYYCARSSPYYDSNHFDYWGQGTSLTVSSAKTTPPSVYPLAPGSAAQTNSMVTLGCLVKGYFPEPVTVTWNSGSLSSGVHTFPAVLQSDLYTLSSSVTVPSSTWPSETVTCNVAHPASSTKVDKKIVPRDCGCKPCICTVPEVSSVFIFPPKPKDVLTITLTPKVTCVVVDISKDDPEVQFSWFVDDVEVHTAQTQPREEQFNSTFRSVSELPIMHQDWLNGKEFKCRVNSAAFPAPIEKTISKTKGRPKAPQVYTIPPPKEQMAKDKVSLTCMITDFFPEDITVEWQWNGQPAENYKNTQPIMDTDGSYFVYSKLNVQKSNWEAGNTFTCSVLHEGLHNHHTEKSLSHSPGK
light: QIVLTQSPAIMSASPGEKVTMTCSARSSINYMHWFQQKPGTSPKRWIYDTSKLASGVPARFSGSGSGTSYSLTISNMEAEDAATYYCHQRNSYPFTFGSGTKLEIKRADAAPTVSIFPPSSEQLTSGGASVVCFLNNFYPKDINVKWKIDGSERQNGVLNSWTDQDSKDSTYSMSSTLTLTKDEYERHNSYTCEATHKTSTSPIVKSFNRNEC

How the values were obtained:
[1] = system: human PBMCs; experiment: Soluble CD28 generation by SEB or CMV stimulated PBMCs, human CD28 ELISA; format: cell-based; settings: for sCD28 levels detected with antibodies of the invention: stimulated cells with protease inhibitors, sandwich ELISA; for amount of sCD28 in culture: PBMCs stimulated with SEB or CMV, TAPI-1 and GM6001 protease inhibitor cocktail
Method: (§1) ELISA—Commercial ELISA kits were used for quantitation of the amount of human interferon-gamma (Biolegend, Cat. No. 430103), human interleukin 2 (Biolegend, Cat. No. 431802), human interleukin 6 (Biolegend, Cat. No. 430502), human interleukin 10 (Biolegend, Cat. No. 430603), human […] beta 1 (Biolegend, Cat. No. 436708), human interleukin beta 1 (Biolegend, Cat. No. 437004) and human CD28 (R&D system, Cat. No. DY342). Cell Proliferation and viability (MTT assay) was conducted according to manufacturer instructions (Roche, cat #11465007001). Kynurenine (IDO activity) ELISA kit was conducted according to manufacturer instructions (ImmuSmo Cat #BA E-2200).
(§2) Protease Inhibitors—Protease inhibitors were added at the indicated concentrations at the start of each experiment. In week long assays another portion of the inhibitors was added after 3 days at the final concentration. […] Where mentioned the protease cocktail was composed with a mixture of TAPI-1 and GM6001 at equimolar ratio.
SEB or CMV activation of PBMCs for the generation of soluble CD28—0.3×10^6 PBMCs were stimulated with 0.5 ng/mL SEB (Sigma, Cat. No. S4881) for 5-7 days at 37° C. with/without the indicated concentration of various protease inhibitors in 48 well plate. Alternatively, 0.1×10^6 PBMCs were stimulated with 0.5 ng/mL SEB in 96 well plate format assay. For CMV stimulation 0.5×10^6 PBMCs were stimulated with 0.5 μg/mL CMV peptivator (Milteny Biotec, Cat. No. 130-093-435) for 2-5 days at 37° C. with/without the indicated concentration of various protease inhibitors in a 96 well plate. For continuous shedding experiments PBMC were stimulated with SEB or CMV in 24 well plate for 24 hr, cells were taken and washed three times with RPMI without stimulant and plated again in a 96 well plate. Samples were taken at indicated times and put under freezing conditions until examination for soluble CD28.

[2] = system: Jurkat T cell line; experiment: Soluble CD28 generation by PHA activated Jurkat T cell line, CD28 ELISA; format: cell-based, human; settings: PHA 1-4 μg/mL, TAPI-1 and GM6001 cocktail 0.5-2 μM
Method: as §1, §2
(§3) PHA activation of CD4 T cells or Jurkat T cell line for the generation of soluble CD28—1×10^5 Jurkat cells or CD4 T cells were incubated with the indicated concentration of Phytohemagglutinin (Sigma, Cat. No. L8902) and various protease inhibitors for additional 5 (Jurkat) or 7 days (CD4 T cells).

[3] = system: human CD4 T cells; experiment: Soluble CD28 generation by PHA activated CD4 T cells, CD28 ELISA; format: cell-based; settings: PHA 1-4 μg/mL, TAPI-1 and GM6001 cocktail 0.5-2 μM
Method: as §1, §2, §3

[4] = biological target: T1, mCD28 (Homo sapiens, UniProt P10747); experiment: CD86 blocking FACS on HEK293 cells stably transfected with human CD28; format: binding; settings: CD86-Fc 5 μg/mL; antibody 20 μg/mL
T1 construct: expressed in transfected cells
Method: CD86 blocking FACS—0.5×10^6 HEK293 cells stably transfected with human CD28 were incubated with 5 μg/mL CD86-Fc (R&D systems, Cat. No. 141-B2) without or with anti CD28 antibodies (20 μg/mL) for 30 min in room temperature. Cells were washed and taken for secondary binding using anti-human heavy and light chains antibody conjugated to fluorophore at 1:5000 dilution for 20 min on ice.

[5] = biological target: T1, mCD28; experiment: FACS binding to mCD28 on naïve CD3 T cells; settings: antibody 20 μg/mL
Method: Flow Cytometry—Generally, cells were kept on ice during all steps. Prior to staining, 5×10^5 cells were blocked with 50 μg/mL human IgG (Sigma, Cat. No. 14506) in FACS buffer (PBS with 0.1% BSA) for 15 min. Antibodies were used at concentrations recommended by the manufacturer and incubated for 30 min. in the dark. Incubations were done in a volume of 100 μL in 96-well U bottom plates. Cells were washed twice with 200 μL of FACS buffer and transferred to FACS tubes in 150 μL of FACS buffer for analysis. Cells were analyzed on a Gallios Flow Cytometer (Beckman Coulter) using the Kaluza for Gallios Flow Cytometry Acquisition Software.
Lastly, the ability of antibodies #1-3 to bind to mCD28 at all was examined. While it is not essential that a sCD28 antibody not bind mCD28 it is advantageous. Such an antibody could be used for specific detection of the soluble protein, and if used therapeutically would have no effect on the membranal form. Naïve isolated CD3 T cells were evaluated by FACs to assay mCD28 binding. Cells were incubated with antibodies #1-3 (20 μg/mL dark grey histograms) or isotype controls (mIgG, 20 μg/mL, light grey histograms). Binding detection was performed with Alexa Fluor 647-conjugated goat anti mouse secondary antibody.

[6] = system: sCD28; experiment: Simulated sweeping of soluble CD28 from plasma with antibody coated magnetic beads; design: species or system human; settings: for sCD28 levels in plasma after beads: about 1.5 μg on beads
Method: Simulated sweeping of soluble CD28 from plasma of cancer patient. Antibodies or recombinant proteins were coated on tosyl-activated magnetic beads (Invitrogen, Cat. No. DY-14203) as described by manufacturer protocol. […] The mixture was incubated in a thermomixer for 2 hr, 1000 RPM at 37° C., followed by removal of the beads using a DynaMag magnet (Invitrogen, Cat. No. 12321D) and the samples were examined using CD28 specific ELISA.
Varying amounts (0.125-2 μg) of antibodies #1 and #2 were loaded onto tosyl-activated magnetic beads according to the manufacturer's protocol (Thermo Fisher Scientific). The loaded beads were then added to plasma samples from a cancer patient, and the mixture was incubated in a thermomixer at 37° C. for 2 hours at 1000 RPM. The beads were isolated and removed from the plasma with a magnet and the amount of sCD28 remaining in the serum was measured by ELISA.
Antibody #1 was further tested on various cancer samples (melanoma, colorectal and ovarian) and compared to three B7 molecules which are known ligands of CD28. About 1.5 μg of antibody #1, CD80, CD86 and ICOSL were each loaded onto tosyl-activated magnetic beads and the beads were mixed with plasma as before. A colorectal sample (FIG. 16C), as well as two melanoma samples (FIG. 16D-E), an ovarian sample (FIG. 16F) and a sample from a healthy donor (FIG. 16G) were all tested.

[7] = biological target: T2, recombinant human CD28 (Homo sapiens, UniProt P10747); experiment: Direct CD28 ELISA on recombinant human CD28; format: binding
T2 construct: recombinant human CD28 lacking the transmembrane and cytoplasmic domains; purchased R&D 342-CD

[8] = system: isolated CD3 human T cells; experiment: CD3 T cells stimulation with anti-CD3 OKT3, IFN gamma secretion; format: cell-based; settings: for IFNγ secretion (agonism): anti-CD3 stimulation, CD28.2 2.0 μg/mL, antibodies 0.1-10 μg/mL
Method: T cells stimulation with OKT3—0.1×10^6 isolated CD3 T cells (from healthy donors) were stimulated with indicated amount of anti-CD3 clone OKT3 for 48-72 hr at 37° C. When stated recombinant human CD80-Fc (2 μg/mL, R&D system) was added in soluble form. Antibodies to CD28 or controls were added at the indicated concentration in soluble form.
CD80 is one of the two main ligands for mCD28 along with CD86. The extracellular domain of CD80 fused to an Fc moiety has been used as an immune stimulatory molecule and is under investigation as a cancer therapy. In order to examine the effect of sCD28 on CD80-Fc efficacy, isolated CD3 human T cells were stimulated with plate bound anti-CD3 antibody (OKT3, 2 μg/mL) in the presence of 2 μg/mL soluble recombinant human CD80-Fc.

Molecule | sCD28 levels detected with antibodies of the invention [1] | amount of sCD28 in supernatant [2] | amount of sCD28 in supernatant [3] | amount of sCD28 in culture [1] | CD86 binding to mCD28 [4] | binding to mCD28 on the cell surface [5] | IFNγ secretion (agonism) [8] | other results
CNC(=O)[C@@H](NC(=O)[C@H](CCCc1ccccc1)[C@H](C)N(O)C=O)C(C)(C)C [GI254023X] | Lower levels of sCD28 | – | – | – | – | – | – | sCD28 release from activated immune cells ([1]; PBMCs, SEB 1 ng/mL, inhibitor 0.01-1 μM): almost complete inhibition of sCD28 release
CNC(=O)[C@H](Cc1c[nH]c2ccccc12)NC(=O)[C@@H](CC(=O)NO)CC(C)C [GM6001] | – | diminished the amount of sCD28 | diminished the amount of sCD28 | diminish the amount of sCD28 in a dose dependent manner | – | – | – | –
CC(C)C[C@H](CC(=O)NO)C(=O)N[C@@H](Cc1ccc2ccccc2c1)C(=O)N[C@@H](C)C(=O)NCCN [TAPI-1] | Lower levels of sCD28 | diminished the amount of sCD28 | diminished the amount of sCD28 | diminish the amount of sCD28 in a dose dependent manner | – | – | – | –
B1 | – | – | – | – | none of antibody #1 (FIG. 15B), antibody #2 (FIG. 15C), or antibody #3 (FIG. 15D) blocked binding of CD86 to mCD28 | bound mCD28 | no effect on IFN secretion | comparison with CD80, CD86 and ICOSL ([6]; about 1.5 μg each on beads): superior to the other three molecules tested; sCD28 levels in plasma after beads ([6]; all cases): at or below the levels observed in the healthy sample; sCD28 levels in plasma after beads ([6]; all samples except one melanoma sample): nearly undetectable levels; removal of sCD28 from plasma ([6]; cancer patient plasma, 0.125-2 μg antibody on beads, 37° C. 2 hours): capable of binding and removing sCD28 from plasma; reduction of sCD28 ([6]; one of the melanoma samples (FIG. 16D)): greater than 50%; detection compared to CD28.2 [7]: nearly ten-times greater detection; binding to sCD28 ([7]; immobilized recombinant human sCD28): much stronger binding to sCD28
B2 | – | – | – | – | – | – | – | IFN gamma secretion ([8]; plate bound OKT3 2 μg/mL, CD80-Fc 2 μg/mL): increased IFN gamma secretion
B3 | – | – | – | – | none of antibody #1 (FIG. 15B), antibody #2 (FIG. 15C), or antibody #3 (FIG. 15D) blocked binding of CD86 to mCD28 | do not bind CD28 on the cell surface | no effect on IFN secretion | –
